# Measurements as given in patent US20190298830A1 (SUZHOU GALAXY BIOPHARMA, published 2019).
# B1: human monoclonal antibody 8D6 (antibody, V domains shown)
# VH: EVQLVQSGSELKKPGASLKLSCKASGYTYITPAMNWVRQAPGHGLEWMGGINTNTGNPTYAQGFAGRFVFSWDTSVSTAYLHISSLKTEDTAVYYCADTRIFSCRRGTCYGGFDVWGQGTMVTVSS
# VL: DIQMTQSPSSLSASVGDRITITCRASQSISNFLNWFQHRPGKAPKLLIYGATILQSGVPSRFSGSGSGTDFTLTISSLQPEDFATYYCQQSDSSTYIFGQGTKVEIK
# How the values were obtained:
# Assay in all cases: cell-based or functional assay
# [1] = target: T1, E2 envelope protein on HCV euvirus (HCVcc) particles, strain PR79 (1b) (Hepatitis C virus strain PR79 (1b))
# [2] = target: T2, E2 envelope protein on HCV euvirus (HCVcc) particles, strain JFH1 (2a) (Hepatitis C virus strain JFH1 (2a))
# [3] = target: E2 envelope protein on HCV euvirus particles, strain PR52B6M (1b) (Hepatitis C virus strain PR52B6M (1b))
# [4] = target: T3, E2 envelope protein on HCV euvirus (HCVcc) particles, strain D183 (2a) (Hepatitis C virus strain D183 (2a))
# [5] = target: E2 envelope protein on HCV euvirus (HCVcc) particles, strain PR63 (2a) (Hepatitis C virus strain PR63 (2a))
# [6] = target: T1, E2 envelope protein on HCV euvirus …; remark: listed apart in the source
# [7] = target: T2, E2 envelope protein on HCV euvirus …; remark: listed apart in the source
# [8] = target: E2 envelope protein on HCV euvirus (HCVcc) particles, strain J8 (2b) (Hepatitis C virus strain J8 (2b))
# [9] = target: T3, E2 envelope protein on HCV euvirus …; remark: listed apart in the source
# [10] = target: E2 envelope protein on HCV euvirus (HCVcc) particles, strain HK6a (6a) (Hepatitis C virus strain HK6a (6a))
# [11] = target: E2 envelope protein on HCV euvirus (HCVcc) particles, strain S52 (3a) (Hepatitis C virus strain S52 (3a))
# [12] = target: E2 envelope protein on HCV euvirus (HCVcc) particles, strain Con1 (1b) (Hepatitis C virus strain Con1 (1b))
# [13] = target: E2 envelope protein on HCV euvirus (HCVcc) particles, strain PR52 (1b) (Hepatitis C virus strain PR52 (1b))
# [14] = target: E2 envelope protein on HCV euvirus (HCVcc) particles, strain SA13 (5a) (Hepatitis C virus strain SA13 (5a))
# [15] = target: E2 envelope protein on HCV euvirus (HCVcc) particles, strain PR26 (1b) (Hepatitis C virus strain PR26 (1b))
binder,measurement,setting,value
B1,"inhibition rate of HCV euvirus, at antibody concentration higher than 0.4 µg/ml",[1],> 90%
same,"inhibition rate of HCV euvirus, at antibody concentration higher than 0.4 µg/ml",[2],> 90%
same,"inhibition rate of HCV euvirus, at antibody concentration higher than 0.4 µg/ml",[3],> 90%
same,"inhibition rate of HCV euvirus, at antibody concentration higher than 0.4 µg/ml",[4],> 90%
same,"IC50 (µg/ml), micro neutralization of HCV euvirus (NS5A-positive foci in Huh-7.5 cells)",[5],< 0.016 µg/mL
same,"IC50 (µg/ml), micro neutralization of HCV euvirus (NS5A-positive foci in Huh-7.5 cells)",[6],< 0.08 µg/mL
same,"IC50 (µg/ml), micro neutralization of HCV euvirus (NS5A-positive foci in Huh-7.5 cells)",[7],0.003 µg/mL
same,"IC50 (µg/ml), micro neutralization of HCV euvirus (NS5A-positive foci in Huh-7.5 cells)",[8],10 µg/mL
same,"IC50 (µg/ml), micro neutralization of HCV euvirus (NS5A-positive foci in Huh-7.5 cells)",[9],< 0.08 µg/mL
same,"IC50 (µg/ml), micro neutralization of HCV euvirus (NS5A-positive foci in Huh-7.5 cells)",[10],0.0015 µg/mL
same,"IC50 (µg/ml), micro neutralization of HCV euvirus (NS5A-positive foci in Huh-7.5 cells)",[11],0.01 µg/mL
same,"IC50 (µg/ml), micro neutralization of HCV euvirus (NS5A-positive foci in Huh-7.5 cells)",[12],2.43 µg/mL
same,"IC50 (µg/ml), micro neutralization of HCV euvirus (NS5A-positive foci in Huh-7.5 cells)",[13],< 0.08 µg/mL
same,"IC50 (µg/ml), micro neutralization of HCV euvirus (NS5A-positive foci in Huh-7.5 cells)",[14],0.087 µg/mL
same,"IC50 (µg/ml), micro neutralization of HCV euvirus (NS5A-positive foci in Huh-7.5 cells)",[15],0.412 µg/mL
